Target: the molecule itself
Assay: dynamic light scattering + native gel or EMSA; fragment at 0.23 mg/ml in 10 mM phosphate buffer, pH 7.4, 25 °C, immediately after dissolving the lyophilisate; native PAGE 5–12% acrylamide

B1: hTTR(59–127) (domain or fragment)
chain: not shown
notes: transthyretin, human, C-terminal proteolytic fragment Thr59-Glu127 (7757.4 Da) from cleavage at the Leu58-Thr59 bond; also called Thr59-Glu127 peptide; source: cleavage of plasma-purified hTTR by B. subtilis subtilisin, purified by semi-preparative RP-HPLC, lyophilized
B1: binds.

Source: article PMC7733459, “A serine protease secreted from Bacillus subtilis cleaves human plasma transthyretin to generate an amyloidogenic fragment” (Communications Biology, 2020)
